Legend:
Experiment in all cases: surface plasmon resonance, Dectin-1 immobilized
[1] = biological target: T1, recombinant murine annexin A13 (murine, UniProt Q99JG3 1-317)
T1 construct: Recombinant protein; also called mAnxA13; AnxA13
T1 sequence (looked up): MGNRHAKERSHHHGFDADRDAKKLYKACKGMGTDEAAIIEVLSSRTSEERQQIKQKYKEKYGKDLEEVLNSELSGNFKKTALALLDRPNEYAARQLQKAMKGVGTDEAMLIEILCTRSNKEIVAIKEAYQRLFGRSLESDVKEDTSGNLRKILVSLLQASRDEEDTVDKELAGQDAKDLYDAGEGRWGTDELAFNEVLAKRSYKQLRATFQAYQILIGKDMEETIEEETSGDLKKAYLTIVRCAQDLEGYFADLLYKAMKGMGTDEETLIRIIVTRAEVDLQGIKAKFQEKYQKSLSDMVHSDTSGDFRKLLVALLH

[2] = biological target: T2, recombinant murine annexin A5 (murine, UniProt P48036 1-319)
T2 construct: Recombinant protein; also called mAnxA5; AnxA5
T2 sequence (looked up): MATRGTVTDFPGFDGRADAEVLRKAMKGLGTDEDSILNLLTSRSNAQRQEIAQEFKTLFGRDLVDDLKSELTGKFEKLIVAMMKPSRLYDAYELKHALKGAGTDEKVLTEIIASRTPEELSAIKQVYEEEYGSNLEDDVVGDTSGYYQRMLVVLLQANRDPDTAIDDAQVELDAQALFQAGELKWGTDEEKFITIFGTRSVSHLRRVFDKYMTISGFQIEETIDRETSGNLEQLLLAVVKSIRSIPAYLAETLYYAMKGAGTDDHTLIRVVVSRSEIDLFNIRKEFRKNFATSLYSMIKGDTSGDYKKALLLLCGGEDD

[3] = biological target: T3, recombinant murine annexin A1 (murine, UniProt P10107 1-346)
T3 construct: Expressed in E. coli from pET41a with C-terminal FLAG tag, PreScission site and Protein A tag; the Protein A tag is cleaved off; also called mAnx1; mAnxA1; not shown: C-terminal FLAG tag and what remains of the PreScission site after cleavage
T3 sequence (looked up): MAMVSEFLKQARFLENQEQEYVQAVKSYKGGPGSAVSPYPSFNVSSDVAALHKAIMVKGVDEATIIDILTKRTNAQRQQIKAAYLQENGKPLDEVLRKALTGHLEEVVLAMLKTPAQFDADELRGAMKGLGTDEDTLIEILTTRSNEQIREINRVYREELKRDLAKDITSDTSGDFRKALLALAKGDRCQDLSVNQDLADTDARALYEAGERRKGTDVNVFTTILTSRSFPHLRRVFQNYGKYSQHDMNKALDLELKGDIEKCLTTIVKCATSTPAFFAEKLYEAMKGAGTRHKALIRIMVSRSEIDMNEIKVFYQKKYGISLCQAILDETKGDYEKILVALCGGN

[4] = biological target: T4, murine annexin A1 core domain (murine, UniProt P10107 41-346, limits assumed)
T4 construct: domain: core domain; also called mAnxA1 core; AnxA1 core domain
T4 sequence (looked up): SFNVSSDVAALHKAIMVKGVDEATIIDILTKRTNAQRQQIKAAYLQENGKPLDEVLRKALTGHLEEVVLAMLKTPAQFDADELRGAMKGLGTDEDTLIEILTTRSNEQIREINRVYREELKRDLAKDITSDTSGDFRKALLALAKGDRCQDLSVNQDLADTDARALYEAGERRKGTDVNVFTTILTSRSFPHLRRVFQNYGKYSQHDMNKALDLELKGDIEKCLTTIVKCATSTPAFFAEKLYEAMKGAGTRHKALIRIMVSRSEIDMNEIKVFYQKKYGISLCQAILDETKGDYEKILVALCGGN

Measured: Kd

B1: Dectin-1 (receptor)
chain: GHNSGRNPEEKDNFLSRNKENHKPTESSLDEKVAPSKASQTTGGFSQPCLPNWIMHGKSCYLFSFSGNSWYGSKRHCSQLGAHLLKIDNSKEFEFIESQTSSHRINAFWIGLSRNQSEGPWFWEDGSAFFPNSFQVRNTAPQESLLHNCVWIHGSEVYNQICNTSSYSICEKEL
~100 nM: [1] | [2] | [3] | [4]

Reference: US20180275124A1 (DEUTSCHES KREBSFORSCHUNGSZENTRUM STIFTUNG DES FFENTLICHEN …, published 2018)
